# Positions count from the first letter of the chain named.
# B1: Mutation 4 (antibody, V domains shown)
# VH: QVQLQQSGTELAKPGASVKFSCKASNYTFSTYWMYWIKQRPGQGLEWIGYLNPSSGHTKYNQRFKDKATLTADKSSSTAYMQLNSLTSEDSAVYYCARKYFGPFNMDYWGQGTSVTVSS
# VL: EIFLTQSPAIMSASPGEKVTMTCSASTTVSYEHWYQQKSGTSPKRWLYDQSKIASGIPVRFSGSGSGTSYSLTISSMEAEDAATYYCQVWSTQPYTFGGGTKLEIKR
# notes: other CDR sites as WT
# B2: Mutation 5 (antibody, V domains shown)
# VH: B1 VH with N26W, K59V, N105S
# VL: B1 VL with E32S, Q50Y, V89E
# notes: other CDR sites as WT
# B3: Mutation 1-48 (antibody, V domains shown)
# VH: B1 VH with N26G, T31S, S55T, K59D, K99R, F101W, N105G
# VL: B1 VL with T27S, E32V, L47I, Q50T, V89Q, Q93N
# B4: Mutation 1-33 (antibody, V domains shown)
# VH: B1 VH with N26G, T31S, L51I, S55T, K59D, R63K, N105G
# VL: B1 VL with T28S, E32V, L47I, Q50T, V89Q, T92S, Q93N
# B5: Mutation 1-6 (antibody, V domains shown)
# VH: B1 VH with N26G, S30T, T31S, K59D, K99R, N105G
# VL: B1 VL with T27S, E32V, Q50T, I53L, V89Q, Q93N
# B6: Mutation 1-49 (antibody, V domains shown)
# VH: B1 VH with N26G, S30T, K59D, R63K, N105G
# VL: B1 VL with T28S, E32V, Q50T, I53L, V89Q, T92S
# B7: Mutation 1-5 (antibody, V domains shown)
# VH: B1 VH with N26G, T31S, S55T, K59D, R63K, F101W, N105G
# VL: B1 VL with T27S, T28S, E32V, L47I, Q50T, V89Q, Q93N
# B8: Mutation 1-27 (antibody, V domains shown)
# VH: B1 VH with N26G, S30T, T31S, K59D, R63K, N105G
# VL: B1 VL with T28S, E32V, L47I, Q50T, I53L, V89Q, T92S, Q93N
# B9: Mutation 1-29 (antibody, V domains shown)
# VH: B1 VH with N26G, T31S, L51I, K59D, R63K, F101W, N105G
# VL: B1 VL with T27S, T28S, E32V, L47I, Q50T, V89Q, T92S, Q93N
# B10: Mutation 1-38 (antibody, V domains shown)
# VH: B1 VH with N26G, S30T, T31S, K59D, R63K, F101Y, N105G
# VL: B1 VL with T27S, E32V, Q50T, I53L, V89Q, T92S, Q93N
# B11: Mutation 1-30 (antibody, V domains shown)
# VH: B1 VH with N26G, S30T, T31S, K59D, K99R, N105G
# VL: B1 VL with E32V, Q50T, I53L, V89Q, T92S, Q93N
# B12: Mutation 1-39 (antibody, V domains shown)
# VH: B1 VH with N26G, S30T, S55T, K59D, R63K, F101W, N105G
# VL: B1 VL with T28S, E32V, L47I, Q50T, I53L, V89Q
# B13: Mutation 1-56 (antibody, V domains shown)
# VH: B1 VH with N26G, S30T, K59D, K99R, F101W, N105G
# VL: B1 VL with T28S, E32V, L47I, Q50T, V89Q, T92S, Q93N
# B14: Mutation 1-42 (antibody, V domains shown)
# VH: B1 VH with N26G, S30T, T31S, L51I, K59D, R63K, K99R, F101W, N105G
# VL: B1 VL with T27S, E32V, Q50T, I53L, V89Q, T92S, Q93N
# B15: Mutation 1-7 (antibody, V domains shown)
# VH: B1 VH with N26G, S30T, S55T, K59D, R63K, K99R, F101Y, N105G
# VL: B1 VL with T28S, E32V, Q50T, I53L, V89Q, Q93N
# B16: Mutation 1-37 (antibody, V domains shown)
# VH: B1 VH with N26G, T31S, S55T, K59D, N105G
# VL: B1 VL with T28S, E32V, L47I, Q50T, I53L, V89Q
# B17: Mutation 1-35 (antibody, V domains shown)
# VH: B1 VH with N26G, S30T, L51I, S55T, K59D, R63K, K99R, F101W, N105G
# VL: B1 VL with T27S, T28S, E32V, L47I, Q50T, I53L, V89Q
# B18: Mutation 1-31 (antibody, V domains shown)
# VH: B1 VH with N26G, S30T, L51I, S55T, K59D, R63K, K99R, F101Y, N105G
# VL: B1 VL with T27S, T28S, E32V, L47I, Q50T, I53L, V89Q, T92S, Q93N
# B19: Mutation 1-41 (antibody, V domains shown)
# VH: B1 VH with N26G, T31S, L51I, S55T, K59D, K99R, F101Y, N105G
# VL: B1 VL with T28S, E32V, L47I, Q50T, V89Q, T92S
# B20: Mutation 1-46 (antibody, V domains shown)
# VH: B1 VH with N26G, S30T, T31S, K59D, R63K, K99R, N105G
# VL: B1 VL with T28S, E32V, L47I, Q50T, I53L, V89Q, T92S, Q93N
# B21: Mutation 1-11 (antibody, V domains shown)
# VH: B1 VH with N26G, S30T, T31S, L51I, K59D, R63K, F101W, N105G
# VL: B1 VL with T28S, E32V, L47I, Q50T, I53L, V89Q
# B22: Mutation 1-52 (antibody, V domains shown)
# VH: B1 VH with N26G, S30T, L51I, S55T, K59D, K99R, F101W, N105G
# VL: B1 VL with T28S, E32V, L47I, Q50T, V89Q, T92S, Q93N
# B23: Mutation 1-2 (antibody, V domains shown)
# VH: B1 VH with N26G, S30T, T31S, L51I, K59D, K99R, F101W, N105G
# VL: B1 VL with T27S, E32V, Q50T, I53L, V89Q, T92S
# B24: Mutation 1-45 (antibody, V domains shown)
# VH: B1 VH with N26G, T31S, S55T, K59D, F101W, N105G
# VL: B1 VL with T27S, E32V, Q50T, I53L, V89Q, T92S
# B25: Mutation 1-43 (antibody, V domains shown)
# VH: B1 VH with N26G, S30T, T31S, L51I, S55T, K59D, R63K, N105G
# VL: B1 VL with T28S, E32V, L47I, Q50T, I53L, V89Q
# B26: Mutation 1-3 (antibody, V domains shown)
# VH: B1 VH with N26G, S30T, L51I, S55T, K59D, R63K, N105G
# VL: B1 VL with T28S, E32V, L47I, Q50T, I53L, V89Q, T92S, Q93N
# B27: Mutation 1-50 (antibody, V domains shown)
# VH: B1 VH with N26G, S30T, T31S, S55T, K59D, R63K, K99R, F101W, N105G
# VL: B1 VL with E32V, L47I, Q50T, I53L, V89Q, T92S, Q93N
# B28: Mutation 1-51 (antibody, V domains shown)
# VH: B1 VH with N26G, S30T, L51I, S55T, K59D, K99R, F101Y, N105G
# VL: B1 VL with T28S, E32V, L47I, Q50T, V89Q, T92S
# Target: T1, cTnI quality control product recombinant protein (human, UniProt P19429 1-210, limits assumed)
# T1 construct: the assay paragraphs only say cTnI; also called cardiac troponin I; cTnI antigen
# Assay: AMC biosensor, antibody on sensor
# Experimental: (§1) Operating process: it is equilibrated in Buffer 1 (PBST) for 60 s, the antibody is immobilized in an antibody solution for 300 s, incubated in Buffer 2 (PBST) for 180 s, bound in antigen solution for 420 s, dissociated in the Buffer 2 for 1200 s, 10 mM of GLY solution with pH 1.69 and Buffer 3 are used for sensor regeneration, and data is output.
# T1 sequence (P19429 whole entry): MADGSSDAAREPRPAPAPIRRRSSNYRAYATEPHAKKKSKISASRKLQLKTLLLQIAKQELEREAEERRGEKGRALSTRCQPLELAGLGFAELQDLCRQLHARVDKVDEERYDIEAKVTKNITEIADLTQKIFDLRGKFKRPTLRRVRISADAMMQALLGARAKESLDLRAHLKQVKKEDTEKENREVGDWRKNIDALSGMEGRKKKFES
Binder,Kd [nM],koff [s⁻¹],kon [M⁻¹ s⁻¹]
B1,56700,0.0371,654
B2,978000,0.687,702

# Target: T1, cTnI quality control product …
# Assay: capture ELISA, antibody 333.333 ng/ml, cTnI 0.15 ug/ml
# Experimental: (§2) After mutation, the antibody activity is detected, 1 μg/ml of goat anti-mouse IgG is diluted with coating solution to coat a microwell plate, 100 μL per well, and overnight at 4 DEG C.; on the next day, it is washed twice with washing solution, and patted dry; blocking solution (20% BSA+80% PBS) is added, 120 μL per well, 37 DEG C., and 1 h, and patted dry; a diluted cTnI monoclonal antibody is added, 100 μL/well, 37 DEG C., and 60 min; liquid in the plate is shaken off, patted dry, and […] of mouse negative blood is added for blocking, 120 μl per well, 37 DEG C., 1 h; liquid in the plate is shaken off, patted dry, a diluted cTnI antigen (0.15 μg/ml) is added, 100 μL per well, 37 DEG C., and 40 min; it is washed for 5 times with the washing solution, and patted dry; another strain of the cTnI monoclonal antibody (1:5K) labeled with HRP is added, 100 μL per well, 37 DEG C., and 30 min; color developing solution A (50 μL/well) is added, color developing solution B (50 μL/well) is added, 10 min; stop solution is added, 50 μL/well; and a OD value is read at 450 nm (refer to 630 nm) on a microplate reader.
row,Binder,OD 450 nm [OD]
1,B1,0.678
2,B2,0.514

# Target: T1, cTnI quality control product …
# Assay: capture ELISA, antibody 111.111 ng/ml, cTnI 0.15 ug/ml
# Experimental: as §2
row,Binder,OD 450 nm [OD]
1,B1,0.374
2,B2,0.247

# Target: T1, cTnI quality control product …
# Assay: capture ELISA, antibody 1000.000 ng/ml, cTnI 0.15 ug/ml
# Experimental: as §2
row,Binder,OD 450 nm [OD]
1,B1,1.28
2,B2,1.12

# Target: T1, cTnI quality control product …
# Assay: AMC biosensor, antibody on sensor
# Remark: another data set of the same source
# Experimental: as §1
Binder,Kd [nM],koff [s⁻¹],kon [M⁻¹ s⁻¹]
B3,6.6,8.58e-05,13000
B4,2.75,9.53e-05,34700
B5,2.32,6.03e-05,26000
B6,5.94,0.000195,32800
B7,0.238,1.17e-05,49300
B8,9.42,0.000372,39500
B9,0.96,1.52e-05,15800
B10,7.3,0.000223,30500
B11,7.2,0.000258,35800
B12,1.03,2.79e-05,27000
B13,6.07,8.86e-05,14600
B14,7.37,0.000362,49100
B15,2.92,4.05e-05,13900
B16,8.01,0.000268,33400
B17,2.6,4.92e-05,18900
B18,12.7,0.000365,24000
B19,3.27,6.06e-05,18500
B20,5.57,0.000118,21200
B21,0.221,4.49e-06,20300
B22,1.01,1.38e-05,13600
B23,7.96,0.000302,37900
B24,3.7,9.65e-05,26100
B25,12.9,0.000368,28600
B26,9.45,0.000181,19200
B27,1.09,1.11e-05,10200
B28,0.81,2.15e-05,26500

# Source: patent US20220033483A1 (GUAGNDONG FEIPENG BIOLOGICAL, published 2022)
